We go through one substance from publication PMC4476745.

The assay deals with PAR-5 (UniProt P41932). Description: IP anti-GFP, blot anti-PAR-5. To be noted: reference: wild type ATGL-1::GFP; sites S303.

For “ATGL-1 (from UniProt Q11186) ATGL-1(S303A)::GFP”, the “binding against the reference” value is “weaker”.
